Experimental data taken from patent US20260242478A1 (published 2026).
Where no end group is shown, it is not given here.

B1: Peptide-263 (peptide)
peptide: AVKACIPEWMCIGF
notes: From the Peptide-180 optimisation phage library
B2: Peptide-283 (peptide)
peptide: TVAYCKPAWMCQGF
notes: as for B1
B3: Peptide-270 (peptide)
peptide: ESRLCVPAWMCAGF
notes: as for B1
B4: Peptide-285 (peptide)
peptide: VERLCTPAWMCHGF
notes: as for B1
B5: Peptide-274 (peptide)
peptide: ITPVCKPLWMCSGL
notes: as for B1
B6: Peptide-268 (peptide)
peptide: VEKVCKPVWMCVGF
notes: as for B1
B7: Peptide-282 (peptide)
peptide: IVVKCVPSWMCEGF
notes: as for B1
B8: Peptide-284 (peptide)
peptide: TEVRCTPPWMCLGF
notes: as for B1
B9: Peptide-286 (peptide)
peptide: VLKYCIPDWMCAGI
notes: as for B1
B10: Peptide-271 (peptide)
peptide: EDILCKPKWMCEGF
notes: as for B1
B11: Phage-447 (peptide)
peptide: MDWCPRDRWDVCYY
notes: Clone of the Peptide-9 optimisation library
B12: Phage-450 (peptide)
peptide: EDWCPTDVWPYCFS
notes: as for B11
B13: Phage-451 (peptide)
peptide: MDWCPRFWWHECYA
notes: as for B11
B14: Phage-453 (peptide)
peptide: MDWCPSDYWYVCFA
notes: as for B11
B15: Phage-443 (peptide)
peptide: MDWCPMTRWNDCYF
notes: as for B11
B16: Phage-442 (peptide)
peptide: IYWCPIDRWNDCYN
notes: as for B11
B17: Phage-452 (peptide)
peptide: MDWCPRDWWHMCFN
notes: as for B11
B18: Phage-446 (peptide)
peptide: MDWCPRDRWDDCFN
notes: as for B11
B19: Phage-449 (peptide)
peptide: MVDCPLISFDECLA
notes: as for B11
B20: Phage-445 (peptide)
peptide: MDWCPRARWHDCFF
notes: as for B11
B21: Phage-448 (peptide)
peptide: MAWCPWASFDECLA
notes: as for B11
B22: Peptide-134 (peptide)
peptide: YCEGHLPEYIQKCL
modifications: not fully specified; cysteine pairing not given here; also: biotinylated, site not given here

target: T1, PSMA Fab; experiment: BLI (Octet); PSMA Fab on sensor-loaded biotinylated peptide, 1:1 model
T1 construct: also called 006 PSMA Fab; anti-PSMA Fab

In order of falling “Off rate t1/2” value:
1. B5  3.3 min
2. B9  3.3 min
3. B10  3.3 min
4. B6  3 min
5. B1  2.3 min
6. B7  1.9 min
7. B2  1.4 min
8. B3  1.4 min
9. B8  1.4 min
10. B4  1.1 min

target: T1, PSMA Fab; experiment: as above; remark: another data set of the same source

In order of falling “Off rate t1/2” value:
1. VTKWCIPPWMCEVT [Peptide-230]  6.4 min
2. GEKWCIPDWMCSGF [Peptide-233]  3.9 min
3. HVKLCKPAWMCQGL [Peptide-219]  2.9 min
4. VEKLCTPIWMCLGF [Peptide-235]  2.3 min
5. LDNWCKPSWMCTGF [Peptide-227]  2.1 min
6. LDKWCVPKWMCSGL [Peptide-232]  2.1 min
7. IPKSCIPSWMCTGF [Peptide-225]  2.1 min
8. IDIRCTPIWMCVGF [Peptide-239]  2 min
9. DVKLCKPEWMCYGL [Peptide-236]  1.8 min
10. LMKWCTPRWMCAAE (cysteine pairing not given here; also: biotinylated, site not given here, PSMA mask peptide) [Peptide-179]  1.2 min

target: T1, PSMA Fab; experiment: binding ELISA; PSMA Fab titrated on plate-captured biotinylated peptide

In order of rising EC50:
1. B5  4 nM
2. B9  4 nM
3. B6  5.1 nM
4. B10  5.7 nM
5. B2  7.8 nM
6. B1  8.4 nM
7. B7  9.2 nM
8. B3  17.3 nM
9. B8  20 nM
10. B4  25 nM

target: T1, PSMA Fab; experiment: as above; remark: another data set of the same source

In order of falling EC50:
1. LMKWCTPRWMCAAE (cysteine pairing not given here; also: biotinylated, site not given here, PSMA mask peptide) [Peptide-179]  110 nM
2. DVKLCKPEWMCYGL [Peptide-236]  19.8 nM
3. VEKLCTPIWMCLGF [Peptide-235]  10.5 nM
4. IPKSCIPSWMCTGF [Peptide-225]  9.7 nM
5. IDIRCTPIWMCVGF [Peptide-239]  9.4 nM
6. LDNWCKPSWMCTGF [Peptide-227]  7.7 nM
7. LDKWCVPKWMCSGL [Peptide-232]  7.2 nM
8. GEKWCIPDWMCSGF [Peptide-233]  6.9 nM
9. HVKLCKPAWMCQGL [Peptide-219]  6.1 nM

target: T1, PSMA Fab; experiment: competition ELISA; peptide 0-100 µM with 0.3 nM PSMA Fab on plate-captured biotinylated PSMA
Procedure: The concentration of peptide required to reduce the maximum signal by 50% (IC₅₀) was calculated in Graphpad Prism software.

In order of rising IC50:
1. LMKWCTPRWMCAAE (cysteine pairing not given here; also: biotinylated, site not given here, PSMA mask peptide) [Peptide-179]  6490 nM
2. LMKWCTPRWMCAAA [Peptide-250]  6640 nM
3. AMKWCTPRWMCAAE [Peptide-241]  9160 nM
4. LAKWCTPRWMCAAE [Peptide-242]  13700 nM
5. LMKWCTPAWMCAAE [Peptide-247]  19700 nM
6. LMKACTPRWMCAAE [Peptide-244]  34500 nM
7. LMAWCTPRWMCAAE [Peptide-243]  40800 nM
8. LMKWCAPRWMCAAE [Peptide-245]  49700 nM

target: T1, PSMA Fab; experiment: as above; remark: another data set of the same source

In order of rising IC50:
1. IAALCQPNWMCAGF (Alanine-scan variant V3A of Peptide-180) [Peptide-252]  5700 nM
2. AAVLCQPNWMCAGF (Alanine-scan variant I1A of Peptide-180) [Peptide-251]  8450 nM

target: T1, PSMA Fab; experiment: as above; remark: another data set of the same source

In order of rising IC50:
1. B7  190 nM
2. B6  250 nM
3. B10  300 nM
4. B5  330 nM
5. B1  620 nM
6. B9  640 nM
7. B3  700 nM
8. B4  710 nM
9. B2  820 nM
10. B8  970 nM

target: T1, PSMA Fab; experiment: as above; remark: another data set of the same source

In order of falling IC50:
1. LMKWCTPRWMCAAE (cysteine pairing not given here; also: biotinylated, site not given here, PSMA mask peptide) [Peptide-179]  7710 nM
2. LDKWCVPKWMCSGL [Peptide-232]  960 nM
3. LDNWCKPSWMCTGF [Peptide-227]  760 nM
4. IDIRCTPIWMCVGF [Peptide-239]  620 nM
5. DVKLCKPEWMCYGL [Peptide-236]  380 nM
6. GEKWCIPDWMCSGF [Peptide-233]  360 nM
7. IPKSCIPSWMCTGF [Peptide-225]  340 nM
8. VEKLCTPIWMCLGF [Peptide-235]  320 nM

target: T2, Anti-CD28 scFv (VH - linker 1 - VL) (biotinylated (site not stated)); experiment: clonal phage ELISA on anti-CD28 scFv plate; wells pre-incubated with soluble CD28 as competitor
T2 sequence (scFv, as listed by the source): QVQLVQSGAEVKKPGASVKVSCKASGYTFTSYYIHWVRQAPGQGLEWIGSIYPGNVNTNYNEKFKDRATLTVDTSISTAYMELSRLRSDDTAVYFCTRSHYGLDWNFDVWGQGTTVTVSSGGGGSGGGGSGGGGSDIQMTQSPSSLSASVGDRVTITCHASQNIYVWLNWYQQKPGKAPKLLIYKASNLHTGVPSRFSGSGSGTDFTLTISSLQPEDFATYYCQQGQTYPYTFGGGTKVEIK

In order of falling “CD28 scFv signal in presence of CD28” value:
1. B13  0.503
2. B17  0.243
3. B16  0.164
4. B12  0.157
5. B20  0.138
6. B21  0.109
7. B14  0.08
8. B15  0.078
9. B18  0.077
10. B19  0.076
11. B11  0.073

target: anti-CD28 Fab; experiment: competition ELISA, peptide titrated 0-100 uM against 1 nM anti-CD28 Fab, plate-bound CD28 as competitor
Target sequence in this assay (VH, as listed by the source, chain 1 of 2): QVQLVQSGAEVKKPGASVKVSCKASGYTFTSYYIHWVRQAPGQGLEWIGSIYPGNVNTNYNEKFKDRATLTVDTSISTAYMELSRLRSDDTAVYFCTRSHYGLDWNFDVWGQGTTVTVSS
Target sequence in this assay (VL, as listed by the source, chain 2 of 2): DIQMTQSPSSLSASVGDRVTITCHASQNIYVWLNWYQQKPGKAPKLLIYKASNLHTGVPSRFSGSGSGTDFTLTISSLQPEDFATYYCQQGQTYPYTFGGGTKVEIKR

In order of falling IC50:
1. YCMGHSHEHIWKCL [Peptide-97]  69100 nM
2. YCAGHMPQYEVKCL [Peptide-95]  43600 nM
3. YCAGHTEEHYVKCM [Peptide-96]  7590 nM
4. YCAGHSHEYLAKCE [Peptide-98]  7040 nM
5. SCAAGASYAWPYCL [Peptide-92]  2390 nM

target: anti-CD28 Fab; experiment: as above; remark: another data set of the same source
Target sequence in this assay (VH, as listed by the source, chain 1 of 2): as the sequence (VH, as listed by the source, chain 1 of 2) above
Target sequence in this assay (VL, as listed by the source, chain 2 of 2): as the sequence (VL, as listed by the source, chain 2 of 2) above

SCAAGASYAWPYCL [Peptide-92] gave an IC50 of 11800 nM.

target: anti-CD28 Fab; experiment: as above; remark: another data set of the same source
Target sequence in this assay (VH, as listed by the source, chain 1 of 2): as the sequence (VH, as listed by the source, chain 1 of 2) above
Target sequence in this assay (VL, as listed by the source, chain 2 of 2): as the sequence (VL, as listed by the source, chain 2 of 2) above

Binder SCAAGASYAWPYCL [Peptide-92] has an IC50 of 7890 nM.

target: anti-CD28 Fab; experiment: BLI (Octet): biotinylated peptide on streptavidin sensor, anti-CD28 Fab titrated in solution, 1:1 model
Target sequence in this assay (VH, as listed by the source, chain 1 of 2): as the sequence (VH, as listed by the source, chain 1 of 2) above
Target sequence in this assay (VL, as listed by the source, chain 2 of 2): as the sequence (VL, as listed by the source, chain 2 of 2) above

For YCEGHLPEYRNKCL (cysteine pairing not given here; also: biotinylated, site not given here) [Peptide-132], the Kd was 110 nM.

In order of falling “t1/2” value:
1. B22  1 min
2. YCEGHLPEYRNKCL (cysteine pairing not given here; also: biotinylated, site not given here) [Peptide-132]  0.8 min

target: T2, Anti-CD28 scFv (VH - linker 1 - VL); experiment: clonal phage ELISA; biotinylated anti-CD28 scFv on neutravidin plate, bound phage detected with anti-M13 HRP
Procedure: Clonal phage were harvested as crude supernatants and screened via standard enzyme linked immunosorbent assays (ELISAs). […] Prior to the addition of clonal phage, wells were incubated with blocking buffer and CD28 soluble protein or blocking buffer alone. Without washing or aspirating, clonal phage supernatants were then added to the wells and incubated for a short time. Wells were then washed followed by detection of bound phage using a horse radish peroxidase conjugated anti-M13 antibody.

In order of falling “CD28 scFv signal” value:
1. B13  2.4
2. B17  2.12
3. B16  0.867
4. B12  0.711
5. B14  0.707
6. B15  0.671
7. B20  0.497
8. B18  0.45
9. B21  0.089
10. B11  0.074
11. B19  0.07

target: T3, anti-CD28 scFv (disulfide); experiment: competition ELISA: peptide titrated (0-100 µM) with 0.3 nM anti-CD28 scFv (disulfide), binding to plate-bound CD28
T3 construct: also called Anti-CD28 scFv (VH - linker 1 - VL) Disulfide mutation: G44C, G235C
T3 sequence (scFv, as listed by the source): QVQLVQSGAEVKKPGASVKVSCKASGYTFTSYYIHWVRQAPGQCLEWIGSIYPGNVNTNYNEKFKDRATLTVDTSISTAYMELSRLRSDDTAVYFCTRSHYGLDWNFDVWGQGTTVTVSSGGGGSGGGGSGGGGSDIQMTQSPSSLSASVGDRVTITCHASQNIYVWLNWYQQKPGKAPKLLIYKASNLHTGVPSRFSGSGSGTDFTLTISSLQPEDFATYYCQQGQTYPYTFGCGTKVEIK

In order of rising IC50:
1. B22  480 nM
2. YCEGHLPEYRNKCL (cysteine pairing not given here; also: biotinylated, site not given here) [Peptide-132]  780 nM
